The values that follow are results of earlier work, collected in paper PMC9760430, “A stapled chromogranin A-derived peptide homes in on tumors that express αvβ6 or αvβ8 integrins” (International Journal of Biological Sciences, 2023).

For data set [1], the target named is integrin αvβ6 (Homo sapiens) (UniProt P06756). To be noted: cited from earlier work.
The target in data set [2] is integrin αvβ8 (Homo sapiens) (UniProt P06756). The conditions noted are these: cited from earlier work.
Chain of integrin αvβ8 (Homo sapiens) (P06756 31-992, chain 1 of 2): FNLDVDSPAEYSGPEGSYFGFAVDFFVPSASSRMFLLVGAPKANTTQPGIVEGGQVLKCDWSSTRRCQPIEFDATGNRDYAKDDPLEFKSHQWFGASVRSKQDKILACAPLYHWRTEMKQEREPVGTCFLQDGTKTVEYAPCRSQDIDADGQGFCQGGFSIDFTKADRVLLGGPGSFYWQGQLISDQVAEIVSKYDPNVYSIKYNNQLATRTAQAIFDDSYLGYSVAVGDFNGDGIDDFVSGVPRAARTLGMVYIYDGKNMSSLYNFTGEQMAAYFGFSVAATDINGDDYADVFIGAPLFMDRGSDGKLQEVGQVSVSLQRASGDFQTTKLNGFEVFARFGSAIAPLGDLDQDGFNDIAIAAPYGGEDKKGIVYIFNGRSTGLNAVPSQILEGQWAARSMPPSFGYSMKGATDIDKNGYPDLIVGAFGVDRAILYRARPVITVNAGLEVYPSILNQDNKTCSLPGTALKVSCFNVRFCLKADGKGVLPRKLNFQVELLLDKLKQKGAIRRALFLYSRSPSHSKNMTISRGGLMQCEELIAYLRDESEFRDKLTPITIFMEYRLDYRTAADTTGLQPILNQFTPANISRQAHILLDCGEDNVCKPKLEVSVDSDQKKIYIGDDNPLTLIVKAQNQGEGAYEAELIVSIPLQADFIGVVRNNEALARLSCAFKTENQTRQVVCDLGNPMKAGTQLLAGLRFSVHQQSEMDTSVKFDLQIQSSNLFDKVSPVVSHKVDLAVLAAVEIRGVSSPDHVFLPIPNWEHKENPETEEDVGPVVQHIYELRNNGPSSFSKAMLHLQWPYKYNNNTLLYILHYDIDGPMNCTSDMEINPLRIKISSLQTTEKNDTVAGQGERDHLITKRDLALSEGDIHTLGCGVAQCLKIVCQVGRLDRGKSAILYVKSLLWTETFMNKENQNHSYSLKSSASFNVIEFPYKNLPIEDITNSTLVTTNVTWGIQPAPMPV
Chain of integrin αvβ8 (Homo sapiens) (P26012 43-684, chain 2 of 2, further chain): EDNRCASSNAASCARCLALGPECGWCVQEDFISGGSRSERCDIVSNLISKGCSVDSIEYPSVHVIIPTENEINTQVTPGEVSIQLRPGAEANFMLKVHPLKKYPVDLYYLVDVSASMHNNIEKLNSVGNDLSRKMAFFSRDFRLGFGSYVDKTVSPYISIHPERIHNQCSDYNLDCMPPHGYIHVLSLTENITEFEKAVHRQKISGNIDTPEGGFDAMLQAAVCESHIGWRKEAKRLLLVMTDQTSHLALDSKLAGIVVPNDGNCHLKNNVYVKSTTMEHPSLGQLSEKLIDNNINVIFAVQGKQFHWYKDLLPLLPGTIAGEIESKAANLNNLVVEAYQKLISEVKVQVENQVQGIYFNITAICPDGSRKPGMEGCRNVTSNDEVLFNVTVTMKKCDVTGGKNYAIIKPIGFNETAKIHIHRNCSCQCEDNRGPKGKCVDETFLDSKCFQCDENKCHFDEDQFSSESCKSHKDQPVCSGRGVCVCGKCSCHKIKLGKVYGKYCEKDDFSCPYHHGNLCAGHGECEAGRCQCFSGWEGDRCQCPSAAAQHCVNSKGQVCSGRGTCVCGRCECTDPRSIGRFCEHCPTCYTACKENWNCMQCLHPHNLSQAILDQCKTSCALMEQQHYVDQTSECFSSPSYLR

Chain of chromogranin A-derived peptide 5 (P10645 57-81): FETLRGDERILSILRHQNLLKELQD
Chain of integrin αvβ6 (Homo sapiens) (P06756 31-992, chain 1 of 2): as the sequence (P06756 31-992, chain 1 of 2) above
Chain of integrin αvβ6 (Homo sapiens) (P18564 22-709, chain 2 of 2, further chain): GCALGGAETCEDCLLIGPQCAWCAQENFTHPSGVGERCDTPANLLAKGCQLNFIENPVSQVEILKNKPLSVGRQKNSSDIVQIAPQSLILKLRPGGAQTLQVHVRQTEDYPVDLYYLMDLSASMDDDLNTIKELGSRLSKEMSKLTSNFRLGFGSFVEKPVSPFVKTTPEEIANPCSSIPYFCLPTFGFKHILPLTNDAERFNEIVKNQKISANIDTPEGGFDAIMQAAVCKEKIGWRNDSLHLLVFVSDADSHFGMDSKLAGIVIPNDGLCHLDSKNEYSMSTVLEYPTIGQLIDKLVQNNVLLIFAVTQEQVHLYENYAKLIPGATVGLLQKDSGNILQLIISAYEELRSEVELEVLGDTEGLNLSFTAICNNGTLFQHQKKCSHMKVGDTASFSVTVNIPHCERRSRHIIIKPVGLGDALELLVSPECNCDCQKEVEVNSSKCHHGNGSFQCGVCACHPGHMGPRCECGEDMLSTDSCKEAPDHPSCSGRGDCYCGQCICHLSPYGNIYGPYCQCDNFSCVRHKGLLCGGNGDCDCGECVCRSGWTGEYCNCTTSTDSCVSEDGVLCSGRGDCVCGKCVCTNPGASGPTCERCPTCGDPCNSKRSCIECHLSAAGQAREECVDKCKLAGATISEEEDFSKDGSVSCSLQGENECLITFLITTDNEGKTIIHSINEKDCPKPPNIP

For orientation: Ki means the dissociation constant of the complex between target and ligand, obtained from inhibition or displacement. Take “chromogranin A-derived peptide 5 (from UniProt P10645)”: the Ki in data set [1] was 0.6 nM; in data set [2] it was 3.2 nM.
